This note sets out measurements from the RNAGym collection of RNA variant scans (doi:10.1093/molbev/msab373).

B1: Azoarcus group I ribozyme (parent)
chain: GUGCCUUGCGCCGGGAAACCACGCAAGGGAUGGUGUCAAAUUCGGCGAAACCUAAGCGCCCGCCCGGGCGUAUGGCAACGCCGAGCCAAGCUUCGGCGCCUGCGCCGAUGAAGGUGUAGAGACUAGACGGCACCCACCUAAGGCAAACGCUAUGGUGAAGGCAUAGUCCAGGGAGUGGCGAAAGUCACACAAACCGG

In the series the parent is B1. Briefly: reverse-splicing fitness (ratio to wild type); higher = more active; in vitro selection; Mg2+ level not given. The essentials:
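An in vitro group I ribozyme library with randomized positions was T7-transcribed and gel-purified. In triplicate, 10 pmol RNA in EPPS pH 7.5 was reacted with 50 pmoles of a 30-nt RNA substrate for 1 h at 37 °C across several added MgCl2 levels (1–48 mM), then stopped with EDTA. Products were reverse transcribed from a substrate-complementary primer, PCR-amplified and sequenced (HiSeq 4000). Fitness is a variant's read proportion after selection over that before, normalised to wild type.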
With GUGCCUUGCGCCGGGAAACCACGCAAGGGAUGGUGUCAAAUUCGGCGAAACCUAAGCGCCCGCCCGGGCGUAUGGCAACGCUGAGCCAAGCUUCGGCGCCUGCGCCGAUGUAGGUGUAGUGACUAGACGGCACCCACCUAAGGCUAACGGUAUGGUGAAGGCAUAGUCUAGGGAGCGGCGAAAGUCACACAAACCGG [C82U A111U A120U A145U C150G C169U U176C], the reverse-splicing fitness turned out to be 0.00272. Then GUGCCUUGCGCCGGGAAACCACGCAAGGGAUGGUGUCAAAUUCGGCGAAACCUAAGCGCCCGCCCGGGCGUAUGGCAACGCUGAGCCAAGCUUCGGCGCCUGCGCCGAUGUAGGUGUAGUGACUAGACGGCACCCACCUAAGGCUAACGGUAUGGUGAAGGCAUAGUCUAGGGAGGGGCGAAAGUCACACAAACCGG [C82U A111U A120U A145U C150G C169U U176G], with 0.0024; and GUGCCUUGCGCCGGGAAACCACGCAAGGGAUGGUGUCAAAUUCGGCGAAACCUAAGCGCCCGCCCGGGCGUAUGGCAACGCUGAGCCAAGCUUCGGCGCCUGCGCCGAUGUAGGUGUAGUGACUAGACGGCACCCACCUAAGGCUAACGGUAUGGUGAAGGCAUAGUCUAGGGAGAGGCGAAAGUCACACAAACCGG [C82U A111U A120U A145U C150G C169U U176A], with 0.00242; and GUGCCUUGCGCCGGGAAACCACGCAAGGGAUGGUGUCAAAUUCGGCGAAACCUAAGCGCCCGCCCGGGCGUAUGGCAACGCUGAGCCAAGCUUCGGCGCCUGCGCCGAUGUAGGUGUAGUGACUAGACGGCACCCACCUAAGGCUAACGGUAUGGUGAAGGCAUAGUCGAGGGAGGGGCGAAAGUCACACAAACCGG [C82U A111U A120U A145U C150G C169G U176G], with 0.00209. In the case of GUGCCUUGCGCCGGGAAACCACGCAAGGGAUGGUGUCAAAUUCGGCGAAACCUAAGCGCCCGCCCGGGCGUAUGGCAACGCUGAGCCAAGCUUCGGCGCCUGCGCCGAUGUAGGUGUAGUGACUAGACGGCACCCACCUAAGGCUAACGGUAUGGUGAAGGCAUAGUCGAGGGAGAGGCGAAAGUCACACAAACCGG [C82U A111U A120U A145U C150G C169G U176A] it was 0.0029; in that of GUGCCUUGCGCCGGGAAACCACGCAAGGGAUGGUGUCAAAUUCGGCGAAACCUAAGCGCCCGCCCGGGCGUAUGGCAACGCUGAGCCAAGCUUCGGCGCCUGCGCCGAUGUAGGUGUAGUGACUAGACGGCACCCACCUAAGGCUAACGGUAUGGUGAAGGCAUAGUCGAGGGAGCGGCGAAAGUCACACAAACCGG [C82U A111U A120U A145U C150G C169G U176C], 0.00288. In the case of GUGCCUUGCGCCGGGAAACCACGCAAGGGAUGGUGUCAAAUUCGGCGAAACCUAAGCGCCCGCCCGGGCGUAUGGCAACGCUGAGCCAAGCUUCGGCGCCUGCGCCGAUGUAGGUGUAGUGACUAGACGGCACCCACCUAAGGCUAACGUUAUGGUGAAGGCAUAGUCAAGGGAGUGGCGAAAGUCACACAAACCGG [C82U A111U A120U A145U C150U C169A] it was 0.00254; in that of GUGCCUUGCGCCGGGAAACCACGCAAGGGAUGGUGUCAAAUUCGGCGAAACCUAAGCGCCCGCCCGGGCGUAUGGCAACGCUGAGCCAAGCUUCGGCGCCUGCGCCGAUGUAGGUGUAGUGACUAGACGGCACCCACCUAAGGCUAACGAUAUGGUGAAGGCAUAGUCCAGGGAGGGGCGAAAGUCACACAAACCGG [C82U A111U A120U A145U C150A U176G], 0.00252; in that of GUGCCUUGCGCCGGGAAACCACGCAAGGGAUGGUGUCAAAUUCGGCGAAACCUAAGCGCCCGCCCGGGCGUAUGGCAACGCUGAGCCAAGCUUCGGCGCCUGCGCCGAUGUAGGUGUAGUGACUAGACGGCACCCACCUAAGGCUAACGAUAUGGUGAAGGCAUAGUCCAGGGAGCGGCGAAAGUCACACAAACCGG [C82U A111U A120U A145U C150A U176C], 0.00477.

On to GUGCCUUGCGCCGGGAAACCACGCAAGGGAUGGUGUCAAAUUCGGCGAAACCUAAGCGCCCGCCCGGGCGUAUGGCAACGCUGAGCCAAGCUUCGGCGCCUGCGCCGAUGUAGGUGUAGUGACUAGACGGCACCCACCUAAGGCUAACGAUAUGGUGAAGGCAUAGUCCAGGGAGAGGCGAAAGUCACACAAACCGG [C82U A111U A120U A145U C150A U176A], for which the reverse-splicing fitness is 0.00357. Consider GUGCCUUGCGCCGGGAAACCACGCAAGGGAUGGUGUCAAAUUCGGCGAAACCUAAGCGCCCGCCCGGGCGUAUGGCAACGCUGAGCCAAGCUUCGGCGCCUGCGCCGAUGUAGGUGUAGUGACUAGACGGCACCCACCUAAGGCUAACGGUAUGGUGAAGGCAUAGUCCAGGGAGGGGCGAAAGUCACACAAACCGG [C82U A111U A120U A145U C150G U176G], for which the reverse-splicing fitness came to 0.00226. In the case of GUGCCUUGCGCCGGGAAACCACGCAAGGGAUGGUGUCAAAUUCGGCGAAACCUAAGCGCCCGCCCGGGCGUAUGGCAACGCUGAGCCAAGCUUCGGCGCCUGCGCCGAUGUAGGUGUAGUGACUAGACGGCACCCACCUAAGGCUAACGGUAUGGUGAAGGCAUAGUCCAGGGAGAGGCGAAAGUCACACAAACCGG [C82U A111U A120U A145U C150G U176A] it was 0.00312; in that of GUGCCUUGCGCCGGGAAACCACGCAAGGGAUGGUGUCAAAUUCGGCGAAACCUAAGCGCCCGCCCGGGCGUAUGGCAACGCUGAGCCAAGCUUCGGCGCCUGCGCCGAUGUAGGUGUAGUGACUAGACGGCACCCACCUAAGGCUAACGGUAUGGUGAAGGCAUAGUCCAGGGAGCGGCGAAAGUCACACAAACCGG [C82U A111U A120U A145U C150G U176C], 0.0047; in that of GUGCCUUGCGCCGGGAAACCACGCAAGGGAUGGUGUCAAAUUCGGCGAAACCUAAGCGCCCGCCCGGGCGUAUGGCAACGCUGAGCCAAGCUUCGGCGCCUGCGCCGAUGUAGGUGUAGUGACUAGACGGCACCCACCUAAGGCUAACGAUAUGGUGAAGGCAUAGUCAAGGGAGGGGCGAAAGUCACACAAACCGG [C82U A111U A120U A145U C150A C169A U176G], 0.00206.

On to GUGCCUUGCGCCGGGAAACCACGCAAGGGAUGGUGUCAAAUUCGGCGAAACCUAAGCGCCCGCCCGGGCGUAUGGCAACGCUGAGCCAAGCUUCGGCGCCUGCGCCGAUGUAGGUGUAGUGACUAGACGGCACCCACCUAAGGCUAACGAUAUGGUGAAGGCAUAGUCUAGGGAGGGGCGAAAGUCACACAAACCGG [C82U A111U A120U A145U C150A C169U U176G], for which the reverse-splicing fitness turned out to be 0.00195.
